Measurements published in patent publication US20080227691A1.

These substances were tested against LRP (low density lipoprotein receptor-related protein) (human) (UniProt Q07954) (assay: SPR, Biacore 3000, LRP amine-coupled to CM5 chip, A2 domain as analyte 62.5-500 nM, 1:1 Langmuir fit, 25 C).

Substance	Kd [µM]
HPC4-tagged A2 domain mutant 433D->N (from UniProt P00451 392-759) (ligand)	0.17
HPC4-tagged A2 domain mutant 488S->N & 490R->T (from UniProt P00451 392-759) (ligand)	0.26
HPC4-tagged A2 domain of wild-type FVIII (from UniProt P00451 392-759) (ligand)	0.02
